From patent publication US11655308B2, “HM-3 fusion protein and application thereof” (TASLY BIOPHARMACEUTICALS CO., LTD., priority 2017, dated 2023)
Where “and” joins values, the source holds several entries; their conditions need not be identical. Equal entries are not always repeated.

Test: Pharmacokinetics after single subcutaneous injection (double-antibody sandwich ELISA)
Experimental: (1) 18 SD rats (half male and half female) were purchased and fed for one week.
(2) Rats were divided into 3 groups, half male and half female, and weight of rats were recorded respectively.
The blood was centrifuged at 12000 rpm/min to take 200 μL of supernatant, then the supernatant was diluted with PBS solution according to a ratio of 1:3, and finally placed in an EP tube and stored in a −80° C. refrigerator.
(4) Biological samples were measured by double-antibody sandwich ELISA.
(1) Coating, HM-3 monoclonal antibody was diluted with a coating buffer (CBS) in certain concentration, added to an ELISA plate and coated overnight.
(2) Plate washing, the coating buffer was discarded, and the plate was washed by PBST for 3 times, and then dried by patting.
(3) Sealing, a blocking buffer was added for sealing at 37.5° C., the plate washing process was repeated and the plate was dried by patting.
(4) Addition of samples to be measured, the samples to be measured were added to the ELISA plate with multiple wells, and then incubated at 37.5° C.; the plate washing process was repeated and the plate was dried by patting.
(5) Addition of a secondary antibody, the secondary antibody diluted proportionally was added for incubation at 37.5° C. The plate washing process was repeated and the plate was dried by patting.
(6) Addition of the enzyme-labeled secondary antibody for reaction, the HRP-labeled secondary antibody which was diluted by 5% skim milk powder solution according to certain proportion was added for incubation at 37.5° C. The plate washing process was repeated and the plate was dried by patting.
(7) Addition of a substrate, a TMB substrate in certain volume L was added for reaction in the dark.
(8) Termination of the reaction, a certain amount of stop buffer was added to terminate the reaction.
(9) Detection, read OD450 nm with a microplate reader.

In the case of mIgG4-Fc-(GGGGS)3-HM-3 [TSL-4], the Plasma concentration (12.5 mg/kg sc, 16.00 h, single rats No. 1-5) is reported as 2587 ng/mL and 3719 ng/mL and 6053 ng/mL and 4976 ng/mL and 14124 ng/mL, the Plasma concentration (12.5 mg/kg sc, 20.00 h, Mean) is reported as 5407 ng/mL and the Plasma concentration (12.5 mg/kg sc, 20.00 h, single rats No. 1-5) is reported as 1900 ng/mL and 3086 ng/mL and 5605 ng/mL and 3962 ng/mL and 12480 ng/mL. The Plasma concentration (12.5 mg/kg sc, 24.00 h, Mean) was 4248 ng/mL, the Plasma concentration (12.5 mg/kg sc, 24.00 h, single rats No. 1-5) was 1822 ng/mL and 2513 ng/mL and 2747 ng/mL and 3966 ng/mL and 10192 ng/mL and the Plasma concentration (12.5 mg/kg sc, 28.00 h, Mean) was 1907 ng/mL. The Plasma concentration (12.5 mg/kg sc, 28.00 h, single rats No. 1-5) was 336 ng/mL and 1653 ng/mL and 766 ng/mL and 2703 ng/mL and 4077 ng/mL, the Plasma concentration (12.5 mg/kg sc, 41.00 h, Mean) was 746 ng/mL and the Plasma concentration (12.5 mg/kg sc, 41.00 h, single rats No. 1-5) was 241 ng/mL and 700 ng/mL and 417 ng/mL and 1185 ng/mL and 1189 ng/mL. For the same substance, the Plasma concentration (12.5 mg/kg sc, 53.00 h, Mean) was 402 ng/mL, the Plasma concentration (12.5 mg/kg sc, 53.00 h, single rats No. 1-5) was 131 ng/mL and 542 ng/mL and 247 ng/mL and 734 ng/mL and 357 ng/mL and the Plasma concentration (12.5 mg/kg sc, 65.00 h, Mean) was 330 ng/mL. The Plasma concentration (12.5 mg/kg sc, 65.00 h, single rats No. 1-5) was 127 ng/mL and 396 ng/mL and 181 ng/mL and 648 ng/mL and 299 ng/mL, the Plasma concentration (12.5 mg/kg sc, 77.00 h, Mean) was 261 ng/mL and the Plasma concentration (12.5 mg/kg sc, 77.00 h, single rats No. 1-5) was 64 ng/mL and 285 ng/mL and 160 ng/mL and 505 ng/mL and 290 ng/mL. For the same substance, the “AUC 0-77” value (12.5 mg/kg single sc) was 116.1901 µg·h/mL, the “AUC 0-∞” value (12.5 mg/kg single sc) was 128.4302 µg·h/mL and the “MRT 0-77” value (12.5 mg/kg single sc) was 18.248 h. The “MRT 0-∞” value (12.5 mg/kg single sc) was 20.882 h, the Tmax (12.5 mg/kg single sc) was 7 ± 0.707 h and the ka (12.5 mg/kg single sc) was 0.247. For the same substance, the “t½ka (absorption half-life)” value (12.5 mg/kg single sc) was 3.249 h, the “t½ke (elimination half-life)” value (12.5 mg/kg single sc) was 32.321 ± 4.935 h and the “α, ke” value (12.5 mg/kg single sc) was 0.149. For the same substance, the Plasma concentration (37.5 mg/kg sc, 0.50 h, Mean) was 1402 ng/mL, the Plasma concentration (37.5 mg/kg sc, 0.50 h, single rats No. 1-5) was 1180 ng/mL and 1202 ng/mL and 1816 ng/mL and 1534 ng/mL and 1277 ng/mL and the Plasma concentration (37.5 mg/kg sc, 1.00 h, Mean) was 2169 ng/mL. For the same substance, the Plasma concentration (37.5 mg/kg sc, 1.00 h, single rats No. 1-5) was 1974 ng/mL and 1514 ng/mL and 2370 ng/mL and 1151 ng/mL and 3838 ng/mL, the Plasma concentration (37.5 mg/kg sc, 3.00 h, Mean) was 13349 ng/mL and the Plasma concentration (37.5 mg/kg sc, 3.00 h, single rats No. 1-5) was 23044 ng/mL and 13341 ng/mL and 9819 ng/mL and 5861 ng/mL and 14678 ng/mL. For the same substance, the Plasma concentration (37.5 mg/kg sc, 5.00 h, Mean) was 19696 ng/mL, the Plasma concentration (37.5 mg/kg sc, 5.00 h, single rats No. 1-5) was 36313 ng/mL and 18726 ng/mL and 10891 ng/mL and 12949 ng/mL and 19600 ng/mL and the Plasma concentration (37.5 mg/kg sc, 6.00 h, Mean) was 27920 ng/mL. The Plasma concentration (37.5 mg/kg sc, 6.00 h, single rats No. 1-5) was 44277 ng/mL and 20173 ng/mL and 20450 ng/mL and 16158 ng/mL and 38541 ng/mL, the Plasma concentration (37.5 mg/kg sc, 7.00 h, Mean) was 35272 ng/mL and the Plasma concentration (37.5 mg/kg sc, 7.00 h, single rats No. 1-5) was 64960 ng/mL and 21479 ng/mL and 38009 ng/mL and 22359 ng/mL and 29552 ng/mL. The Plasma concentration (37.5 mg/kg sc, 8.00 h, Mean) was 30478 ng/mL, the Plasma concentration (37.5 mg/kg sc, 8.00 h, single rats No. 1-5) was 62784 ng/mL and 25446 ng/mL and 31080 ng/mL and 12944 ng/mL and 20137 ng/mL and the Plasma concentration (37.5 mg/kg sc, 10.00 h, Mean) was 24736 ng/mL. The Plasma concentration (37.5 mg/kg sc, 10.00 h, single rats No. 1-5) was 44656 ng/mL and 21055 ng/mL and 21153 ng/mL and 10006 ng/mL and 26810 ng/mL, the Plasma concentration (37.5 mg/kg sc, 12.00 h, Mean) was 19172 ng/mL and the Plasma concentration (37.5 mg/kg sc, 12.00 h, single rats No. 1-5) was 36576 ng/mL and 17149 ng/mL and 17361 ng/mL and 8919 ng/mL and 15856 ng/mL. The Plasma concentration (37.5 mg/kg sc, 16.00 h, Mean) was 11084 ng/mL, the Plasma concentration (37.5 mg/kg sc, 16.00 h, single rats No. 1-5) was 13903 ng/mL and 7767 ng/mL and 12942 ng/mL and 6885 ng/mL and 13925 ng/mL and the Plasma concentration (37.5 mg/kg sc, 20.00 h, Mean) was 7721 ng/mL. For the same substance, the Plasma concentration (37.5 mg/kg sc, 20.00 h, single rats No. 1-5) was 9514 ng/mL and 3313 ng/mL and 9915 ng/mL and 4605 ng/mL and 11259 ng/mL, the Plasma concentration (37.5 mg/kg sc, 24.00 h, Mean) was 4523 ng/mL and the Plasma concentration (37.5 mg/kg sc, 24.00 h, single rats No. 1-5) was 4801 ng/mL and 3205 ng/mL and 5617 ng/mL and 3076 ng/mL and 5918 ng/mL. For the same substance, the Plasma concentration (37.5 mg/kg sc, 28.00 h, Mean) was 2285 ng/mL, the Plasma concentration (37.5 mg/kg sc, 28.00 h, single rats No. 1-5) was 1952 ng/mL and 2730 ng/mL and 3953 ng/mL and 1833 ng/mL and 959 ng/mL and the Plasma concentration (37.5 mg/kg sc, 41.00 h, Mean) was 920 ng/mL. The Plasma concentration (37.5 mg/kg sc, 41.00 h, single rats No. 1-5) was 780 ng/mL and 912 ng/mL and 1824 ng/mL and 779 ng/mL and 303 ng/mL, the Plasma concentration (37.5 mg/kg sc, 53.00 h, Mean) was 407 ng/mL and the Plasma concentration (37.5 mg/kg sc, 53.00 h, single rats No. 1-5) was 431 ng/mL and 466 ng/mL and 510 ng/mL and 391 ng/mL and 237 ng/mL. The Plasma concentration (37.5 mg/kg sc, 65.00 h, Mean) was 312 ng/mL, the Plasma concentration (37.5 mg/kg sc, 65.00 h, single rats No. 1-5) was 357 ng/mL and 301 ng/mL and 370 ng/mL and 291 ng/mL and 243 ng/mL and the Plasma concentration (37.5 mg/kg sc, 77.00 h, Mean) was 215 ng/mL. The Plasma concentration (37.5 mg/kg sc, 77.00 h, single rats No. 1-5) was 269 ng/mL and 253 ng/mL and 169 ng/mL and 244 ng/mL and 138 ng/mL, the “AUC 0-77” value (37.5 mg/kg single sc) was 166.338 µg·h/mL and the “AUC 0-∞” value (37.5 mg/kg single sc) was 176.11 ± 39.59645 µg·h/mL. For the same substance, the “MRT 0-77” value (37.5 mg/kg single sc) was 13.988 h, the “MRT 0-∞” value (37.5 mg/kg single sc) was 15.755 h and the Tmax (37.5 mg/kg single sc) was 7 ± 0.707 h. The ka (37.5 mg/kg single sc) was 0.116, the “t½ka (absorption half-life)” value (37.5 mg/kg single sc) was 3.079 h and the “t½ke (elimination half-life)” value (37.5 mg/kg single sc) was 34.356 ± 1.578 h and 34.355 h. For the same substance, the “α, ke” value (37.5 mg/kg single sc) was 0.197 and the “pharmacokinetic characteristics” value (4.17, 12.5, 37.5 mg/kg sc) was “consistent with linear pharmacokinetic characteristics”.
